Measurements reported in article doi:10.1101/787119 (bioRxiv, 2019).

Molecular target: the molecule itself
Assay: SEC-MALS

B1: Full-length human dehydrodolichyl diphosphate synthase (DHDDS) (enzyme, UniProt Q86SQ9 1-333, looked up)
chain: MSWIKEGELSLWERFCANIIKAGPMPKHIAFIMDGNRRYAKKCQVERQEGHSQGFNKLAETLRWCLNLGILEVTVYAFSIENFKRSKSEVDGLMDLARQKFSRLMEEKEKLQKHGVCIRVLGDLHLLPLDLQELIAQAVQATKNYNKCFLNVCFAYTSRHEISNAVREMAWGVEQGLLDPSDISESLLDKCLYTNRSPHPDILIRTSGEVRLSDFLLWQTSHSCLVFQPVLWPEYTFWNLFEAILQFQMNHSVLQKARDMYAEERKRQQLERDQATVTEQLLREGLQASGDAQLRRTRLHKLSARREERVQGFLQALELKRADWLARLGTASA
stoichiometry N: 2
